Assay [1] addresses human CCR8 (C-C chemokine receptor type 8) expressed on cells (human) (UniProt P51685). As to the kind of experiment: flow cytometry competition on Raji-CCR8 cells; competitor: fluorescently-conjugated BIOLEGEND anti-human CCR8 antibody at a single concentration. A general note: A flow cytometer gives signals particle by particle.
The target in assay [2] is T1, human CCR8 (C-C chemokine receptor type 8) expressed on cells (human, UniProt P51685 1-355).
T1 construct: also called HuCCR8
As to the kind of experiment: on-cell affinity, flow cytometry on 293T cells expressing human CCR8.

Assay [3] has as its target T2, Human CCR8-ECD-Fc (human).
T2 construct: also called HuCCR8-ECD-Fc; huCC8-ECD-Fc
T2 chain: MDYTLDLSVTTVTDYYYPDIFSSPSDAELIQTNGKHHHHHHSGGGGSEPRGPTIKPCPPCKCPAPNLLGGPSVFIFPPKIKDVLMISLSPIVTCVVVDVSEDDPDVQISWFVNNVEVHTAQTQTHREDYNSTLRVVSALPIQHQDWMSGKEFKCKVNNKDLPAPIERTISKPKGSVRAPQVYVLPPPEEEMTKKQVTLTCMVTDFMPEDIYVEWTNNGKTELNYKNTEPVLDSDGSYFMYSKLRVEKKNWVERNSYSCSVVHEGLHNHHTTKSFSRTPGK
Put plainly: binding to HuCCR8-ECD-moFc protein (so in the source), OD45-570nm (so in the source).

The target in assay [4] is T3, mouse CCR8 expressed on 293T cells (mouse, UniProt P56484 1-353).
T3 construct: whole, on cells
T3 sequence (looked up): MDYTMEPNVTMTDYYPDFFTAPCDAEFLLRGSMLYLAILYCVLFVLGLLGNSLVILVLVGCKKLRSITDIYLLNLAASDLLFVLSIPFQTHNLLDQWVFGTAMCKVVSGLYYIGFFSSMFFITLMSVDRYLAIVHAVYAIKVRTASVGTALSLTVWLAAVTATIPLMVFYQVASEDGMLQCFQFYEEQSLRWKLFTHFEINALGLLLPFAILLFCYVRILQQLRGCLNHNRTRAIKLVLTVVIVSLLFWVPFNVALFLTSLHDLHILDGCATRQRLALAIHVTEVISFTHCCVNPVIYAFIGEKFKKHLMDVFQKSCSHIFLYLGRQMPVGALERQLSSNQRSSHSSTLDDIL
Put plainly: flow cytometry, mouseCCR8-293T cells, fold geomean over secondary alone.

The target of assay [5] is T4, Cynomolgus CCR8-ECD-Fc (cynomolgus monkey).
T4 construct: also called CyCCR8-ECD-Fc; Cynomolgus CCR8-Fc
T4 chain: T2 chain with L7P, V9M, V12M, I20S, F21L, A27G, T32R, G34D
As to the kind of experiment: binding to CyCCR8-ECD-huFc protein (so in the source), OD45-570nm (so in the source).

Assay [6] deals with T5, cynomolgus monkey CCR8 expressed on cells (cynomolgus monkey, UniProt G7NYJ2 1-355).
T5 construct: whole, on cells; also called cyno CCR8; CyCCR8
Put plainly: on-cell affinity, flow cytometry on 293T cells expressing cyno CCR8.
Target sequence in this assay (G7NYJ2 entry or part of it): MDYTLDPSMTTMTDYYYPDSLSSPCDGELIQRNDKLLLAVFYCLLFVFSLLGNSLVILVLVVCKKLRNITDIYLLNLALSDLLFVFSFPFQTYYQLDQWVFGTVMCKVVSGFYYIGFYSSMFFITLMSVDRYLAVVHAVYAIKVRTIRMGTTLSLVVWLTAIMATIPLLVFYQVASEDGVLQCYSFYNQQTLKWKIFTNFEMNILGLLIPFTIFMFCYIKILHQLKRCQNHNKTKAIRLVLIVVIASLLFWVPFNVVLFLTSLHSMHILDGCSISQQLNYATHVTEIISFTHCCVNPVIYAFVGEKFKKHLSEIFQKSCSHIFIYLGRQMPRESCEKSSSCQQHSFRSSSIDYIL

For assay [7], the target named is T4, Cynomolgus CCR8-ECD-Fc. Put plainly: binding to CyCCR8-ECD-huFc protein (so in the source), OD45-570nm (so in the source).
For assay [8], the target named is T2, Human CCR8-ECD-Fc. As to the kind of experiment: binding to HuCCR8-ECD-moFc protein (so in the source), OD45-570nm (so in the source).
Assay [9] concerns the target T3, mouse CCR8 expressed on 293T cells. As to the kind of experiment: flow cytometry, mouseCCR8-293T cells, fold geomean over secondary alone. This is another data set of the same source.
Assay [10] concerns the target T5, cynomolgus monkey CCR8 expressed on …. Put plainly: on-cell affinity, flow cytometry on 293T cells expressing cyno CCR8. The source holds these as a separate data set.
Target sequence in this assay (G7NYJ2 entry or part of it): as above
Assay [11] deals with T1, human CCR8 (C-C chemokine receptor type …). As to the kind of experiment: flow cytometry, HuCCR8-293T cells, fold geomean over secondary alone.
The target in assay [12] is T5, cynomolgus monkey CCR8 expressed on …. Put plainly: flow cytometry, CyCCR8-293T cells, fold geomean over secondary alone.
Assay [13] addresses T4, Cynomolgus CCR8-ECD-Fc. Put plainly: binding to CyCCR8-ECD-Fc protein, OD 450-570 nm.
In assay [14] the target is T2, Human CCR8-ECD-Fc. Put plainly: binding to HuCCR8-ECD-Fc protein, OD 450-570 nm.
Assay [15] deals with T1, human CCR8 (C-C chemokine receptor type …). As to the kind of experiment: on-cell affinity, flow cytometry on 293T cells expressing human CCR8. The source holds these as a separate data set.
The target is the same in assay [16]. Put plainly: flow cytometry, HuCCR8-293T cells, fold geomean over secondary alone. This is another data set of the same source.
Assay [17] addresses T4, Cynomolgus CCR8-ECD-Fc. Put plainly: binding to CyCCR8-ECD-Fc protein, OD 450-570 nm.
Assay [18] concerns the target T2, Human CCR8-ECD-Fc. As to the kind of experiment: binding to HuCCR8-ECD-Fc protein, OD 450-570 nm.
The target of assay [19] is T4, Cynomolgus CCR8-ECD-Fc. As to the kind of experiment: binding to CyCCR8-ECD-Fc protein, OD 450-570 nm.
The target of assay [20] is T5, cynomolgus monkey CCR8 expressed on …. Put plainly: flow cytometry, CyCCR8-293T cells, fold geomean over secondary alone. The source holds these as a separate data set.
Assay [21] deals with T2, Human CCR8-ECD-Fc. Put plainly: binding to HuCCR8-ECD-Fc protein, OD 450-570 nm.
In assay [22] the target is T1, human CCR8 (C-C chemokine receptor type …). As to the kind of experiment: flow cytometry, HuCCR8-293T cells, fold geomean over secondary alone. This is another data set of the same source.
Assay [23] deals with T2, Human CCR8-ECD-Fc. Put plainly: binding to HuCCR8-ECD-Fc protein, OD 450-570 nm.
The target in assay [24] is T4, Cynomolgus CCR8-ECD-Fc. Put plainly: binding to CyCCR8-ECD-Fc protein, OD 450-570 nm.
The target in assay [25] is T5, cynomolgus monkey CCR8 expressed on …. Put plainly: flow cytometry, CyCCR8-293T cells, fold geomean over secondary alone. The source holds these as a separate data set.
Assay [26] addresses T1, human CCR8 (C-C chemokine receptor type …). Put plainly: flow cytometry, HuCCR8-293T cells, fold geomean over secondary alone. This is another data set of the same source.
Assay [27] concerns the target T5, cynomolgus monkey CCR8 expressed on …. Put plainly: flow cytometry, CyCCR8-293T cells, fold geomean over secondary alone. This is another data set of the same source.
Assay [28] concerns the target T1, human CCR8 (C-C chemokine receptor type …). Put plainly: flow cytometry, HuCCR8-293T cells, fold geomean over secondary alone. The source holds these as a separate data set.
In assay [29] the target is T2, Human CCR8-ECD-Fc. As to the kind of experiment: binding to HuCCR8-ECD-Fc protein, OD 450-570 nm.
Assay [30] concerns the target T4, Cynomolgus CCR8-ECD-Fc. As to the kind of experiment: binding to CyCCR8-ECD-Fc protein, OD 450-570 nm.

Positions count from the first letter of the chain named. Where two headings read alike, the source gives them in different places.

T1 sequence (P51685 whole entry): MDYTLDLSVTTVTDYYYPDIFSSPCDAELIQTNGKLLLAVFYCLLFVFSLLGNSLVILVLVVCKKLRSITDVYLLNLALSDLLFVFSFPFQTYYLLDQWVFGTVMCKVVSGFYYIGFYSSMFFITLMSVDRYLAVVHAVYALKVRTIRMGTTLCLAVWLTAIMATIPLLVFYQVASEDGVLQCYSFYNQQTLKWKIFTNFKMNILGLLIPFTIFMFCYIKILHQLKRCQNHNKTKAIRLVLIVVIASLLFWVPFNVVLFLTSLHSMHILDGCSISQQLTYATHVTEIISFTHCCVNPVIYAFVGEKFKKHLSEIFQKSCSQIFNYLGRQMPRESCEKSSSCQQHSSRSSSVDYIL
Sequence of human CCR8 (C-C chemokine receptor type 8) expressed on cells (human) (P51685 whole entry): as above

Biolegend control (antibody) gave an IC50 (read off the curve) in assay [1] of 0.03 µg/mL.

B1: anti-CCR8-parental-1 (antibody, V domains shown)
VH: QVQLVQSGAEVKKPGASVKVSCKASGYTFTSYYMHWVRQAPGQGLEWMGIINPSGGSTSYAQKFQGRVTMTRDTSTSTVYMELSSLRSEDTAVYYCARGVGNGFRFDYWGQGTLVT
VL: QSALTQPASVSGSPGQSITISCTGTSSDVGSYNLVSWYQQHPGKAPKLMIYEVSKRPSGVSNRFSGSKSGNTASLTISGLQAEDEADYYCSSYAGSSTFVVFGGGTKLTVL
notes: Full-length human IgG; also called parental antibody; H23188/L1037
Usually Kd stands for the equilibrium constant for the complex coming apart. On to B1, for which, in assay [2], binding was characterised by a dissociation constant (Kd) of 1.06 nM.

B2: anti-CCR8-1-4 (antibody, V domains shown)
VH: B1 VH
VL: QSALTQPASVSGSPGQSITISCSGTSSNIGKYNLVSWYQQHPGEAPTLLIYEATKRPSGVSNRFSGSKSGNTASLTISGLQAEDEADYICSSYAGSRVFVVFGGGTKLTVL
notes: Parental-1 heavy chain with a shuffled lambda light chain; Human IgG expressed in CHO cells
As for B2, the binding result in the assay with Human CCR8-ECD-Fc [3] was “binds”; in [4], “no binding (tested: 10 ug/ml)”; with Cynomolgus CCR8-ECD-Fc [5] it was “binds”. For the same molecule, the values for the dissociation constant Kd in assay [2] and in [6] were 0.28 nM and 35.9 nM, respectively.

B3: anti-CCR8-1-3 (antibody, V domains shown)
VH: B1 VH
VL: B1 VL with A8P, T23S, S31I, M49I, S54I, V60I, S67F, S96P, S97V, F99Y
notes: as for B2
On to B3, for which the figures for the binding result (with Cynomolgus CCR8-ECD-Fc [7]; with Human CCR8-ECD-Fc [8]; in [9]) were “binds”, “binds” and “no binding (tested: 10 ug/ml)”, respectively. This molecule registered an equilibrium dissociation constant (Kd) in assay [2] of 1.38 nM.

B4: anti-CCR8-2-3 (antibody, V domains shown)
VH: EVQLVESGGGLVQPGRSLRLSCAASGFTFDDYAMHWVRQAPGKGLEWVSGISWNSGSIGYADSVKGRFTISRDNSKNSLYLQMNSLRAEDTALYYCARGRKSYRDSLRFDYWGQGTLVTVSS
VL: QSVLTQPPSVSAAPGQKVTISCSGSSSNIGNNYVSWYQQLPGTAPKLLIYDNNKRPSGIPDRFSGSKSGTSATLGITGLQTGDEADYYCGTWDSSLSAWVFGGGTKLT
notes: Human IgG from a mammalian expression vector in CHO cells; also called heavy chain H23499
What is called EC50 (read off the curve) is the midpoint of the concentration-response curve. For B4, the equilibrium dissociation constant (Kd) was found to be 3.9 nM in [10] and 2.5 nM in assay [15]. Also, the concentration for a half-maximal effect (EC50 (read off the curve)) in assay [11] is approximately 0.4 µg/mL; in assay [12], approximately 1 µg/mL; in the assay with Cynomolgus CCR8-ECD-Fc [13] it was approximately 0.03 µg/mL; in the assay with Human CCR8-ECD-Fc [14], approximately 0.03 µg/mL.

B5: anti-CCR8-2-10 (antibody, V domains shown)
VH: B4 VH
VL: QSVLTQPPSVSAAPGQKVTISCSGTSSNIGKNFVSWYQQLPGTAPKLLIYDDNKRPSGIPDRFSGSKSATSATLGITGLQTGDGADYYCGTWDSSLSAWVFGGGTKLTVL
notes: Human IgG
On to B5, for which the half-maximal effective concentration (EC50 (read off the curve)) is approximately 0.6 µg/mL in [16], approximately 0.04 µg/mL with Cynomolgus CCR8-ECD-Fc [17] and approximately 0.04 µg/mL in the assay with Human CCR8-ECD-Fc [18]. Further, the figures for the Kd in assay [10] and in assay [15] were 3.9 nM and 2.4 nM, respectively.

B6: anti-CCR8-2-8 (antibody, V domains shown)
VH: B4 VH with K101R
VL: QSVLTQPPSVSGAPGQRVTISCTGSGSNIGNNYVSWYQQLPGTAPKMLIYDNTRRPSGIPDRFSGSKSDTSATLGITGLQTGDEADYYCGAWDSSLRMWVFGGGTKLTVL
notes: Human IgG
For B6, the dissociation constant (Kd) was 2.5 nM in assay [10] and 1.5 nM in assay [15]. Moreover, the concentration for a half-maximal effect (EC50 (read off the curve)) with Cynomolgus CCR8-ECD-Fc [19] was approximately 0.04 µg/mL; in [20], approximately 1 µg/mL; with Human CCR8-ECD-Fc [21], approximately 0.04 µg/mL; in assay [22], approximately 0.4 µg/mL.

B7: anti-CCR8-2-7 (antibody, V domains shown)
VH: B4 VH with K101D, D105K
VL: B6 VL
notes: Human IgG
As for B7, the Kd in assay [10] came out at 3.5 nM; in assay [15], 1.3 nM. Also, the 50% effective concentration (EC50 (read off the curve)) with Human CCR8-ECD-Fc [23] was approximately 0.04 µg/mL; with Cynomolgus CCR8-ECD-Fc [24] it was approximately 0.04 µg/mL; in assay [25], approximately 1 µg/mL; in [26] it was approximately 0.4 µg/mL.

B8: anti-CCR8-2-9 (antibody, V domains shown)
VH: B4 VH
VL: B6 VL
notes: Human IgG
Take B8: the Kd in assay [10] was found to be 3.2 nM; in assay [15], 1.5 nM. In addition, the “EC50 (read off the curve)” value in assay [27] is approximately 0.4 µg/mL; in assay [28], approximately 0.4 µg/mL; in the assay with Human CCR8-ECD-Fc [29] it was approximately 0.04 µg/mL; with Cynomolgus CCR8-ECD-Fc [30] it was approximately 0.04 µg/mL.

Source of the values: patent publication US20210238292A1 (VACCINEX, published 2021).
